These results are taken from patent US20220169693A1, “Screening Assays, Modulators and Modulation of Intracellular Signalling Mediated by Immunoglobulin Superfamily Cell Adhesion Molecules” (Monash University, priority 2018, published 2022).

One assay addresses T1, AT1R (Homo sapiens, UniProt P30556).
T1 construct: Rluc8; expressed in transfected cells; S391A-RAGE transiently transfected
T1 sequence (P30556 1-359): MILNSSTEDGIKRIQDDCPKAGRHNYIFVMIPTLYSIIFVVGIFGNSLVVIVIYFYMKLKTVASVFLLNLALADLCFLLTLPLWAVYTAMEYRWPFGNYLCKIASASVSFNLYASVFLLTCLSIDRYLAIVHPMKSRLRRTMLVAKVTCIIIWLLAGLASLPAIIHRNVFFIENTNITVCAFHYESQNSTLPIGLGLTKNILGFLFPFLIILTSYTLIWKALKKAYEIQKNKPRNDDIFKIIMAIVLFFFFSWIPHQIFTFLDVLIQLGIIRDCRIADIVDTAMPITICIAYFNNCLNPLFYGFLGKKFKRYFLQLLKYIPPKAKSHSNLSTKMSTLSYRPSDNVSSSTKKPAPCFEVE
Kind of assay: Functional competition: Ang II-induced p65/PCNA expression in AT1R-CHO cells transfected with full length mutant S391A-RAGE. Type of assay: cell-based. Conditions: for transactivation of the over-expressed cytosolic tail in the presence of S391A-RAGE1-404 (p65): Ang II 1 μM 2 h (FIG. 7A). How it is done:
Adult retinal pigment epithelial (ARPE) cells were cultured in Dulbecco's modified Eagle's medium (DMEM)/F12 endothelial cell growth supplement (ECGS) supplemented media. Chinese Hamster Ovary (CHO) cells were cultured using F12 media (10% FCS with 2 mM glutamine). Human microvascular endothelial cells (HMEC) were cultured in MCDB 131 medium (10% FCS with 10 mM glutamine, EGF and hydrocortisone).
100 ng of AT1R-Rluc8 construct was transfected into CHO cells using Lipofectamine 2000 (Thermo). Stable transfectants were selected using G418. AT1R-CHO were then transiently transfected with the IgSF CAM and/or RAGE constructs using Lipofectamine 2000 (Invitrogen) and incubated for 16h.
After 2 hours of exposure to Ang II (1 μM) cells were placed in Trizol, mRNA extracted and cDNA synthesized. Changes in the gene expression of the NFκB subunit, p65 (RelA) or NFκB-activated target genes (e.g ICAM-1) were estimated by quantitative real-time RT-PCR, performed using the TaqMan system based on real-time detection of accumulated fluorescence (ABI Prism 7700, Perkin-Elmer Inc, PE Biosystems, Foster City, Calif., USA). Gene expression was normalized to 18S mRNA and reported as fold change compared to the level of expression in untreated control mice/cells, which were given an arbitrary value of 1.

Assay [1] addresses T2, Rluc8-labelled CADM4 (CADM4/Rluc8) (UniProt Q8NFZ8 21-388).
T2 construct: whole, on cells; not shown: Rluc8, a variant of Renilla luciferase
T2 sequence (looked up): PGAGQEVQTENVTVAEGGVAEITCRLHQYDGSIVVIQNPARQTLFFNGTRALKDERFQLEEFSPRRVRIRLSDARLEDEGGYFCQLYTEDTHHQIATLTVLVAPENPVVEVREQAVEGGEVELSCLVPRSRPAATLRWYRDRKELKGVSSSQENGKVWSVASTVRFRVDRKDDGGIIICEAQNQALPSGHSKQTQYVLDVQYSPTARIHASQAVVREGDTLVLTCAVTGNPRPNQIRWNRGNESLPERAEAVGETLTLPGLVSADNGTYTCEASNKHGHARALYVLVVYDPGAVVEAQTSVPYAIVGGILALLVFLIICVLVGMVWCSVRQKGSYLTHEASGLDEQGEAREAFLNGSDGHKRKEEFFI
As to the kind of experiment: BRET saturation assay (FIG. 12D). The method, then:
(§1) The BRET ratio was calculated by subtracting the ratio of ‘acceptor emission’ over ‘donor emission’ for a cell sample expressing Rluc8-tagged protein alone from the same ratio for a cell sample expressing both Rluc8 and Venus-tagged proteins. Alternatively, the ligand-induced BRET signal was calculated by subtracting the ratio of ‘acceptor emission’ over ‘donor emission’ for a vehicle-treated cell sample from the same ratio for a second aliquot of the same cells treated with agonist.
(§2) For the BRET kinetic assays, the final pre-treatment reading is presented at the zero time point (time of ligand/vehicle addition). For the BRET saturation assays, fluorescence after light excitation was measured on an EnVision 2102 multi-label plate reader (PerkinElmer, Glen Waverley, Victoria, Australia) using a 485/14 excitation filter, 535/25 emission filter and D505 mirror. The fluorescence/luminescence ratio was generated by dividing the fluorescence values in arbitrary units (obtained with the EnVision) by the luminescence values also in arbitrary units (obtained as part of the BRET assay).

Another assay deals with T3, RAGE/Rluc8 (UniProt Q15109 23-404).
T3 construct: whole, on cells; not shown: Rluc8, a variant of Renilla luciferase
T3 sequence (Q15109 23-404): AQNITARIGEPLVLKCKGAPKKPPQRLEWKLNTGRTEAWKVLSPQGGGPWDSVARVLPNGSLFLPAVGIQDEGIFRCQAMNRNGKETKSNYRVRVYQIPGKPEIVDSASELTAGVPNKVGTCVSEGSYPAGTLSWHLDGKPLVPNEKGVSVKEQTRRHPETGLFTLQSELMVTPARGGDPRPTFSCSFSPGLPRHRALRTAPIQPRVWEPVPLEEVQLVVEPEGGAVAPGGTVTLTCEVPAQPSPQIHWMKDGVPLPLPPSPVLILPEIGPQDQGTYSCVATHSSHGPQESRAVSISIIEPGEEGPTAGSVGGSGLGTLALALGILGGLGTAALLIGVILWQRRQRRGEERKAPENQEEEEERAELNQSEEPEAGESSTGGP
As to the kind of experiment: BRET saturation assay (FIGS. 13A, 13D). The method, then:
as §1, §2

In assay [2] the target is T4, untagged RAGE (RAGE cDNA co-transfected) (UniProt Q15109 23-404).
T4 construct: whole, on cells
T4 sequence (Q15109 23-404): as above
Kind of assay: BRET saturation assay, competition with EpCAM/Rluc8 (FIG. 11D). How it is done: as §1, §2

For another assay, the target named is T5, human ALCAM/Rluc8 (human, UniProt Q13740 28-583).
T5 construct: also called ALCAM/Rluc8 (human ALCAM); not shown: Rluc8, a variant of Renilla luciferase
T5 sequence: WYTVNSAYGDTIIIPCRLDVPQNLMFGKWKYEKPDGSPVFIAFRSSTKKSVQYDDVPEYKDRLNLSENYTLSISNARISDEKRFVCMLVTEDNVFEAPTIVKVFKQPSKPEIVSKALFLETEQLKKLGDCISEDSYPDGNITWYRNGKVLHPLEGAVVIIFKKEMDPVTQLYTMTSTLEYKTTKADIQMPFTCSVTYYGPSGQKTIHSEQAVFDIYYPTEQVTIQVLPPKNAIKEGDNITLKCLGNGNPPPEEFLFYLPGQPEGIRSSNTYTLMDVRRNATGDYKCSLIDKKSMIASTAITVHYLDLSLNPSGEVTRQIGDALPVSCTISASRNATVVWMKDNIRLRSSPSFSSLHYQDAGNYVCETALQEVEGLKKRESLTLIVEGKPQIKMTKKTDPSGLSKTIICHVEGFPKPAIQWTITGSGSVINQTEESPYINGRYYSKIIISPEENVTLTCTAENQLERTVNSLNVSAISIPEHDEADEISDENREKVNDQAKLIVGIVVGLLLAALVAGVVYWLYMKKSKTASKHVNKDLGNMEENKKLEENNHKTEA
Kind of assay: Receptor-HIT BRET: ALCAM/Rluc8 + β-arrestin2/Venus ± untagged AT1, after AngII. The method, then: as §1
(§3) GPCRs untagged with respect to the BRET system were then co-expressed in the HEK293FT cells, or the cells were transfected with pcDNA3 as a control. […] A ligand-induced BRET signal was indicative of recruitment of the BRET-tagged β-arrestin2 proximal to the BRET-tagged CAM, thereby indicating close proximity between the CAM and the activated GPCR.
In general terms: Bioluminescence resonance energy transfer reports proximity on the nanometre scale.

For a further assay, the target named is T6, mouse ALCAM/Rluc8 (mouse, UniProt Q61490 28-583).
T6 construct: also called ALCAM/Rluc8 (mouse ALCAM); not shown: Rluc8, a variant of Renilla luciferase
T6 sequence: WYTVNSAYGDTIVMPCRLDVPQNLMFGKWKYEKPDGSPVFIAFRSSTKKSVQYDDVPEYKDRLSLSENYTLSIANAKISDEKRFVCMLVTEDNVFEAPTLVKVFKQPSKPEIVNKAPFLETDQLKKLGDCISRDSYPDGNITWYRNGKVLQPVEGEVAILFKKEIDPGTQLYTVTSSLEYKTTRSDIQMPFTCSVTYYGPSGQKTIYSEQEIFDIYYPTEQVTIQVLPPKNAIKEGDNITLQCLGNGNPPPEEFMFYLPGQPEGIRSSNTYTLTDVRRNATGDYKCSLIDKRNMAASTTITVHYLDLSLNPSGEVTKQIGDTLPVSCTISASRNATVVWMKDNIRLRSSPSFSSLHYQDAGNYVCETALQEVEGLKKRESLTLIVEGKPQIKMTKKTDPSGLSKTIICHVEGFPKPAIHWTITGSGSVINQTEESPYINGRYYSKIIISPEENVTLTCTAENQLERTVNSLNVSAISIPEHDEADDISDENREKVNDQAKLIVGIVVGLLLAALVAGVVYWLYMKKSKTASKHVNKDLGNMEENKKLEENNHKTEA
The assay is described as above. How it is done: as §1, §3

Assay [3] addresses T7, Venus-labelled mouse ALCAM (ALCAM/Venus) (mouse, UniProt Q61490 28-583).
T7 construct: also called mouse ALCAM/Venus; not shown: Venus, a variant of green fluorescent protein
T7 sequence: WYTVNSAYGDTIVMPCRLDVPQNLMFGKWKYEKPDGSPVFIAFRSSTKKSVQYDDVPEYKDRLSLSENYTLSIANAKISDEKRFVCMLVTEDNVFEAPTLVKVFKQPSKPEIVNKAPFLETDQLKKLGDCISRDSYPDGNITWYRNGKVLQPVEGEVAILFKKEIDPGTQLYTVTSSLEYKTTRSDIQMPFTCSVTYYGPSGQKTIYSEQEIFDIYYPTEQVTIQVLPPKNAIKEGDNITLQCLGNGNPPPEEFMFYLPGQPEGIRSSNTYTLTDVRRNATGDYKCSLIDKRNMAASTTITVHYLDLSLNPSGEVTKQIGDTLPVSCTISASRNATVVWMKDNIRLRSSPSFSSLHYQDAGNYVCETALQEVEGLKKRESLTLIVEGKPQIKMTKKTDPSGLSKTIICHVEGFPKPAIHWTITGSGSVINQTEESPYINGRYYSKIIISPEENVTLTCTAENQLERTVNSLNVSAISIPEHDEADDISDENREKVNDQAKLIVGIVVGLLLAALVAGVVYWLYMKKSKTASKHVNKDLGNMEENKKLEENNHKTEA
As to the kind of experiment: Receptor-HIT BRET: ALCAM/Venus + β-arrestin2/Rluc8 ± untagged AT1, after AngII. The method, then:
as §1, §3

The target of assay [4] is T2, Rluc8-labelled CADM4 (CADM4/Rluc8). Kind of assay: Receptor-HIT BRET: CADM4/Rluc8 + β-arrestin2/Venus ± untagged AT1, after AngII. How it is done:
as §1, §3

Assay [5] concerns the target T8, Venus-labelled CADM4 (CADM4/Venus) (UniProt Q8NFZ8 21-388).
T8 construct: whole, on cells; not shown: Venus, a variant of green fluorescent protein
T8 sequence (looked up): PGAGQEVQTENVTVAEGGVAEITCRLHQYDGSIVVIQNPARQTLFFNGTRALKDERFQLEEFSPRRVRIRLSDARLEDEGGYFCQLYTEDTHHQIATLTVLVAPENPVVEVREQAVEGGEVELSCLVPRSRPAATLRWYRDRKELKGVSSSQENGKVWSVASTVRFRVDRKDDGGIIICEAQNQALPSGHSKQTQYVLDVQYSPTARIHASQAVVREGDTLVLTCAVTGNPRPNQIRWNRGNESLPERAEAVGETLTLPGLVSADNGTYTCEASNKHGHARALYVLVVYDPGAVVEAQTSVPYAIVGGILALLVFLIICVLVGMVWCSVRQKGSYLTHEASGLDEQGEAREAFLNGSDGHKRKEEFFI
As to the kind of experiment: Receptor-HIT BRET: CADM4/Venus + β-arrestin2/Rluc8 ± untagged AT1, after AngII. The method, then: as §1, §3

As to “MKKSKTASKHVNKDLGNMEENKKLEENNHKTEA (Synthetic peptide - Truncated amino acid sequence of human ALCAM protein corresponding to residues 551 to 583 (corresponding to the cytosolic tail of ALCAM)) [ALCAM551-583]”, the “transactivation of the over-expressed cytosolic tail in the presence of S391A-RAGE1-404 (p65)” value in the assay with AT1R (AT1R-CHO cells) is given as “able to overcome inhibition of transactivation”.
Turning to “MSVRQKGSYLTHEASGLDEQGEAREAFLNGSDGHKRKEEFFI [CADM4336-388]”, the “transactivation of the over-expressed cytosolic tail in the presence of S391A-RAGE1-404 (p65)” value with AT1R (AT1R-CHO cells) is “able to overcome inhibition of transactivation”.
For the molecule “S391A-RAGE1-404: full length human mutant S391A-RAGE”, in the assay with AT1R (AT1R-CHO cells, Ang II 1 μM 2 h, vs pCIneo (FIG. 7A)), the “ability of Ang II to induce p65-NFκB expression after transfection of the mutant” value was “fails to confer the ability of Ang II to induce expression”. Besides, in the assay with AT1R (Ang II 1 μM 2 h, vs pCIneo (FIG. 7B)), the “transactivation by AT1R as indicated by PCNA expression after transfection of the mutant” value is listed as “unable to be transactivated”.

B1: Venus-tagged Angiotensin II receptor 1 (AT1/Venus) (receptor, UniProt P30556 1-359, looked up)
chain: MILNSSTEDGIKRIQDDCPKAGRHNYIFVMIPTLYSIIFVVGIFGNSLVVIVIYFYMKLKTVASVFLLNLALADLCFLLTLPLWAVYTAMEYRWPFGNYLCKIASASVSFNLYASVFLLTCLSIDRYLAIVHPMKSRLRRTMLVAKVTCIIIWLLAGLASLPAIIHRNVFFIENTNITVCAFHYESQNSTLPIGLGLTKNILGFLFPFLIILTSYTLIWKALKKAYEIQKNKPRNDDIFKIIMAIVLFFFFSWIPHQIFTFLDVLIQLGIIRDCRIADIVDTAMPITICIAYFNNCLNPLFYGFLGKKFKRYFLQLLKYIPPKAKSHSNLSTKMSTLSYRPSDNVSSSTKKPAPCFEVE
notes: whole, on cells; not shown: Venus, a variant of green fluorescent protein
Consider B1, for which the binding result (in assay [1]; in the assay with RAGE/Rluc8; in assay [2]) was “binds” each time.

B2: AT1 (untagged, co-expressed in HEK293FT cells) (receptor, UniProt P30556 1-359, looked up)
chain: MILNSSTEDGIKRIQDDCPKAGRHNYIFVMIPTLYSIIFVVGIFGNSLVVIVIYFYMKLKTVASVFLLNLALADLCFLLTLPLWAVYTAMEYRWPFGNYLCKIASASVSFNLYASVFLLTCLSIDRYLAIVHPMKSRLRRTMLVAKVTCIIIWLLAGLASLPAIIHRNVFFIENTNITVCAFHYESQNSTLPIGLGLTKNILGFLFPFLIILTSYTLIWKALKKAYEIQKNKPRNDDIFKIIMAIVLFFFFSWIPHQIFTFLDVLIQLGIIRDCRIADIVDTAMPITICIAYFNNCLNPLFYGFLGKKFKRYFLQLLKYIPPKAKSHSNLSTKMSTLSYRPSDNVSSSTKKPAPCFEVE
notes: whole, on cells; Untagged with respect to BRET (Receptor-HIT assays); also called Angiotensin II receptor 1
As for B2, the binding result (in the assay with human ALCAM/Rluc8; in the assay with mouse ALCAM/Rluc8; in assay [3]; in [4]; in assay [5]) was “binds” throughout.
